Test [1] deals with H3S10phG12P (1–20) (UniProt P68431 2-21, G12P, phosphoserine at 10). Description: fluorescence polarisation. In general terms: Polarisation of emitted light reports the rotation of a fluorescent probe.
Test [2] addresses H3S10phK14acG12P (1–20) (UniProt P68431 2-21, G12P, phosphoserine at 10; acetyl-lysine at 14). As to the kind of experiment: fluorescence polarisation.

From PMC3182529 (Cell cycle (Georgetown, Tex.), 2008) come the findings set out here.

Usually Kd stands for the free concentration of one partner at which half of the binding sites on the other are occupied at equilibrium, for simple one-to-one binding. Low values mean a tighter complex, high ones a looser complex.

B1: 14-3-3ζ (natural protein)
chain: MDKNELVQKAKLAEQAERYDDMAACMKSVTEQGAELSNEERNLLSVAYKNVVGARRSSWRVVSSIEQKTEGAEKKQQMAREYREKIETELRDICNDVLSLLEKFLIPNASQAESKVFYLKMKGDYYRYLAEVAAGDDKKGIVDQSQQAYQEAFEISKKEMQPTHPIRLGLALNFSVFYYEILNSPEKACSLAKTAFDEAIAELDTLSEESYKDSTLIMQLLRDNLTLWTSDTQGDEAEAGEGGEN
B1: the Kd was 19.9 µM in test [1] and 40 µM in test [2].
